Measurements taken from US20230151068A1.

Biological target: biotinylated His-Avi-TEAD (194-411) (UniProt P28347)
Assay: SSM screen, enrichment after two rounds of sorting

enrichment score	Binder
-8.36	GSPDEYFERAKECCKKGDIQCCLRYFEESGDPNVMLICLFCP (designed binder) [I05F variant of SEQ ID NO: 1]
-1.53	GSPDEYIWRAKECCKKGDIQCCLRYFEESGDPNVMLICLFCP (designed binder) [E06W variant of SEQ ID NO: 1]
-5.4	GSPDEYIERAKECCKKGDGQCCLRYFEESGDPNVMLICLFCP (designed binder) [I17G variant of SEQ ID NO: 1]
-2.03	GSPDEYIERAKECCKKGDIGCCLRYFEESGDPNVMLICLFCP (designed binder) [Q18G variant of SEQ ID NO: 1]
-2.95	GSPWEYIERAKECCKKGDIQCCLRYFEESGDPNVMLICLFCP (designed binder) [D02W variant of SEQ ID NO: 1]
-1.63	GSPYEYIERAKECCKKGDIQCCLRYFEESGDPNVMLICLFCP (designed binder) [D02Y variant of SEQ ID NO: 1]
4.43	GSPDEYIERAKECCKKKDIQCCLRYFEESGDPNVMLICLFCP (designed binder) [G15K variant of SEQ ID NO: 1]
-0.36	GSPDYYIERAKECCKKGDIQCCLRYFEESGDPNVMLICLFCP (designed binder) [E03Y variant of SEQ ID NO: 1]
-1.96	GSPDEYIFRAKECCKKGDIQCCLRYFEESGDPNVMLICLFCP (designed binder) [E06F variant of SEQ ID NO: 1]
-0.44	GSPDEYIERAKECCHKGDIQCCLRYFEESGDPNVMLICLFCP (designed binder) [K13H variant of SEQ ID NO: 1]
1.99	GSPDEYIERAKECCKKEDIQCCLRYFEESGDPNVMLICLFCP (designed binder) [G15E variant of SEQ ID NO: 1]
-3.33	GSPDEYIERAKECCKKGDHQCCLRYFEESGDPNVMLICLFCP (designed binder) [I17H variant of SEQ ID NO: 1]
0.53	GSPDEYIERAKECCKHGDIQCCLRYFEESGDPNVMLICLFCP (designed binder) [K14H variant of SEQ ID NO: 1]
-4.7	GSPDEYIERPKECCKKGDIQCCLRYFEESGDPNVMLICLFCP (designed binder) [A08P variant of SEQ ID NO: 1]
-0.3	GSPDEYIERAKECCKKGDEQCCLRYFEESGDPNVMLICLFCP (designed binder) [I17E variant of SEQ ID NO: 1]
-4.55	GSPDEYIERAKECCKKGHIQCCLRYFEESGDPNVMLICLFCP (designed binder) [D16H variant of SEQ ID NO: 1]
-3.35	GSPDEYIERYKECCKKGDIQCCLRYFEESGDPNVMLICLFCP (designed binder) [A08Y variant of SEQ ID NO: 1]
-3.52	GSPDEYIERAFECCKKGDIQCCLRYFEESGDPNVMLICLFCP (designed binder) [K09F variant of SEQ ID NO: 1]
-9.1	GSWDEYIERAKECCKKGDIQCCLRYFEESGDPNVMLICLFCP (designed binder) [P01W variant of SEQ ID NO: 1]
-1.4	GSPDWYIERAKECCKKGDIQCCLRYFEESGDPNVMLICLFCP (designed binder) [E03W variant of SEQ ID NO: 1]
-1.6	GSPDEYIERAKFCCKKGDIQCCLRYFEESGDPNVMLICLFCP (designed binder) [E10F variant of SEQ ID NO: 1]

enrichment score	Binder
-4.39	GSPDEYIERAKECCKKGDIHCCLRYFEESGDPNVMLICLFCP (designed binder) [Q18H variant of SEQ ID NO: 1]
-0.84	GSPDEYIERAKECCKKGDIECCLRYFEESGDPNVMLICLFCP (designed binder) [Q18E variant of SEQ ID NO: 1]
-0.4	GSPDPYIERAKECCKKGDIQCCLRYFEESGDPNVMLICLFCP (designed binder) [E03P variant of SEQ ID NO: 1]
-0.43	GSPDEYPERAKECCKKGDIQCCLRYFEESGDPNVMLICLFCP (designed binder) [I05P variant of SEQ ID NO: 1]
-10.9	GSPDEYYERAKECCKKGDIQCCLRYFEESGDPNVMLICLFCP (designed binder) [I05Y variant of SEQ ID NO: 1]
-0.19	GSPDEYIERAKECCKKGDIDCCLRYFEESGDPNVMLICLFCP (designed binder) [Q18D variant of SEQ ID NO: 1]
-1.01	GSPDEYIEYAKECCKKGDIQCCLRYFEESGDPNVMLICLFCP (designed binder) [R07Y variant of SEQ ID NO: 1]
-2.11	GSPPEYIERAKECCKKGDIQCCLRYFEESGDPNVMLICLFCP (designed binder) [D02P variant of SEQ ID NO: 1]
-1.04	GSPDEYIEFAKECCKKGDIQCCLRYFEESGDPNVMLICLFCP (designed binder) [R07F variant of SEQ ID NO: 1]
-1.06	GSPDEYIERAKECCKRGDIQCCLRYFEESGDPNVMLICLFCP (designed binder) [K14R variant of SEQ ID NO: 1]
-5.61	GSPDEYIERAKYCCKKGDIQCCLRYFEESGDPNVMLICLFCP (designed binder) [E10Y variant of SEQ ID NO: 1]
-1.54	GSPDEYIERAKECCKKGDIKCCLRYFEESGDPNVMLICLFCP (designed binder) [Q18K variant of SEQ ID NO: 1]
-3.33	GSYDEYIERAKECCKKGDIQCCLRYFEESGDPNVMLICLFCP (designed binder) [P01Y variant of SEQ ID NO: 1]
-0.81	GSPDEYIERAKECCRKGDIQCCLRYFEESGDPNVMLICLFCP (designed binder) [K13R variant of SEQ ID NO: 1]
-2.49	GSPDEYIEPAKECCKKGDIQCCLRYFEESGDPNVMLICLFCP (designed binder) [R07P variant of SEQ ID NO: 1]
-2.84	GSPDEYIPRAKECCKKGDIQCCLRYFEESGDPNVMLICLFCP (designed binder) [E06P variant of SEQ ID NO: 1]
-3.6	GSPDEYIERAKECCKKGEIQCCLRYFEESGDPNVMLICLFCP (designed binder) [D16E variant of SEQ ID NO: 1]
3.18	GSPDEYIERAKECCKKHDIQCCLRYFEESGDPNVMLICLFCP (designed binder) [G15H variant of SEQ ID NO: 1]
-9.42	GSPDEYIERAKECCKKGDDQCCLRYFEESGDPNVMLICLFCP (designed binder) [I17D variant of SEQ ID NO: 1]
-0.1	GSPDEYIERAKECCEKGDIQCCLRYFEESGDPNVMLICLFCP (designed binder) [K13E variant of SEQ ID NO: 1]
-5.46	GSPDEYIERWKECCKKGDIQCCLRYFEESGDPNVMLICLFCP (designed binder) [A08W variant of SEQ ID NO: 1]

enrichment score	Binder
-9.54	GSPDEYIERAKECCKKGGIQCCLRYFEESGDPNVMLICLFCP (designed binder) [D16G variant of SEQ ID NO: 1]
-3.72	GSPDEYIERAKPCCKKGDIQCCLRYFEESGDPNVMLICLFCP (designed binder) [E10P variant of SEQ ID NO: 1]
-1.28	GSPDEYIEWAKECCKKGDIQCCLRYFEESGDPNVMLICLFCP (designed binder) [R07W variant of SEQ ID NO: 1]
-0.26	GSPDEYIERAKECCKKDDIQCCLRYFEESGDPNVMLICLFCP (designed binder) [G15D variant of SEQ ID NO: 1]
-4.96	GSPDEYIERAYECCKKGDIQCCLRYFEESGDPNVMLICLFCP (designed binder) [K09Y variant of SEQ ID NO: 1]
-1.58	GSPDEYIERAKWCCKKGDIQCCLRYFEESGDPNVMLICLFCP (designed binder) [E10W variant of SEQ ID NO: 1]
-4.41	GSPDEYIERAWECCKKGDIQCCLRYFEESGDPNVMLICLFCP (designed binder) [K09W variant of SEQ ID NO: 1]
-2.47	GSPDEWIERAKECCKKGDIQCCLRYFEESGDPNVMLICLFCP (designed binder) [Y04W variant of SEQ ID NO: 1]
1.27	GSPDEYIERAKECCKDGDIQCCLRYFEESGDPNVMLICLFCP (designed binder) [K14D variant of SEQ ID NO: 1]
-4.53	GSPDEYIERAKECCKKGDKQCCLRYFEESGDPNVMLICLFCP (designed binder) [I17K variant of SEQ ID NO: 1]
-7.46	GSPDEYWERAKECCKKGDIQCCLRYFEESGDPNVMLICLFCP (designed binder) [I05W variant of SEQ ID NO: 1]
0.7	GSPDEYIERAKECCGKGDIQCCLRYFEESGDPNVMLICLFCP (designed binder) [K13G variant of SEQ ID NO: 1]
-2.33	GSPDEYIYRAKECCKKGDIQCCLRYFEESGDPNVMLICLFCP (designed binder) [E06Y variant of SEQ ID NO: 1]
-4.33	GSPDEYIERFKECCKKGDIQCCLRYFEESGDPNVMLICLFCP (designed binder) [A08F variant of SEQ ID NO: 1]
-6.95	GSPDEYIERAKECCKKGKIQCCLRYFEESGDPNVMLICLFCP (designed binder) [D16K variant of SEQ ID NO: 1]
1	GSPDEYIERAKECCKEGDIQCCLRYFEESGDPNVMLICLFCP (designed binder) [K14E variant of SEQ ID NO: 1]
-4.5	GSPDEYIERAPECCKKGDIQCCLRYFEESGDPNVMLICLFCP (designed binder) [K09P variant of SEQ ID NO: 1]
1.02	GSPDEPIERAKECCKKGDIQCCLRYFEESGDPNVMLICLFCP (designed binder) [Y04P variant of SEQ ID NO: 1]
0.43	GSPDEYIERAKECCDKGDIQCCLRYFEESGDPNVMLICLFCP (designed binder) [K13D variant of SEQ ID NO: 1]
1.11	GSPDEYIERAKECCKGGDIQCCLRYFEESGDPNVMLICLFCP (designed binder) [K14G variant of SEQ ID NO: 1]
